We go through 40 sequences from the nanobody polyreactivity screen of Harvey et al. (2022).

A short description of the series: yeast display, Sf9 membrane polyspecificity reagent, FACS + sequencing; frameworks hold sequencing errors. A digest of the protocol:
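In a synthetic yeast display library (Saccharomyces cerevisiae BJ5465), nanobody expression was induced with galactose for 36–48 hours. FACS gates were set low and high (top ~1%) using anti-HA fluorescence for expression and streptavidin fluorescence for binding of the Sf9 membrane reagent. Each polyreactivity label is drawn from the gate of origin.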
In the case of “QVQLVESGGGLVQAGGSLRLSCAASGFIFGFYAMGWYRQAPGKERELVAAITSDGGTYYADSVKGRFTISRDNAKNTVYLQMNSLKPEDTAVYYCAADVLYEVFSWYVGYDYWGQGTQVTVSS”, the “polyreactivity (PSR sort gate)” value is “low polyreactivity”.
The value for “QVQLVESGGGLVQAGGSLRLSCAASGFIFGGYARGWYRQAPGKEREFVAAIRQRGGSTYYADSVKGRFTISRDNAKNTVYLQMNSLKPEDTAVYYCAAEPNTQWFDYWGQGTQVTVSS” was “high polyreactivity”; that for “QVQLVESGGGLVQAGGSLRLSCAASGFIFGHYVMGWYRQAPGKERELVAAISVGGGRTYYADSVKGRFTISRDNAKNTVYLQMNSLKPEDTAVYYCRSYGYDYWGQGTQVTVSS” was “high polyreactivity”; that for “QVQLVESGGGLVQAGGSLRLSCAASGFIFGKFAMGWYRPAPGKERELVAAITSDGRTYYADSVKGRFTISRDNAKNTVYLQMNSLKPEDTAVYYCAVDYYWYWYSGYDDYWGQGTQVTVSS” was “high polyreactivity”.
For “QVQLVESGGGLVQAGGSLRLSCAASGFIFGNYVLGWSRQAPGKERELVAAISESGSRTYYADSVKGRFTISRDYAKKTVYLQMNSLKPEDTAVYYCAAALFSYYGEYDYWGQGTQVTVSS”, the “polyreactivity (PSR sort gate)” value is given as “low polyreactivity”.
The entry for “QVQLVESGGGLVQAGGSLRLSCAASGFIFGPNAMGWYRQAPGKERELVAAISWIGSSTYYADSVKGRFTISRDNAKNTVYFQMNSLKPQDTAVYYCAADSSERRLMDFDYWGQGTQVTVSS” is “low polyreactivity”; for “QVQLVESGGGLVQAGGSLRLSCAASGFIFGQNDMGWYRQAPGKERELVAAISSDGSTYYADSVKGRFTISRDNAKNTVYLQMNSLKPEDTAVYYCAAEYSWYYYYLYVGEYDYWGQGTQVTVSS” it is “low polyreactivity”.
The entry for “QVQLVESGGGLVQAGGSLRLSCAASGFIFGRYAMGWYRQAPGKERELVAAITRSGGTTYYADSVKGRFTISRDNAKKTVYLQMYSLKPEDTAVYYCAAPRIYYTDDYWGQGTQVTVSS” is “high polyreactivity”; for “QVQLVESGGGLVQAGGSLRLSCAASGFIFGRYTMGWSRQAPGKEGELVAAISGSDVSTYYADSVKGRFTISRDNAKNTVYLQLNSVKPEDTAVYYCAADAPWAYYEYDYWGQGTQVTVSS” it is “low polyreactivity”.
The entry for “QVQLVESGGGLVQAGGSLRLSCAASGFIFGSNAMGWYRQAPGKERELVATITKRGGTTYYADSVKGRFTISRDNAKNTVYLQMNSLKPEDTAVYYCNRSGPGFYSTRFNYWGQGTQVTVSS” is “high polyreactivity”; for “QVQLVESGGGLVQAGGSLRLSCAASGFIFGSYAMGWYRQAPGKERELVAAITSSGITYYADSVKGRFTISRDNAKNTVYLQMNSLKPEDTAVYYCAAEGSTYQGAPGVYYWGQGTQVTVSS” it is “high polyreactivity”.
With “QVQLVESGGGLVQAGGSLRLSCAASGFIFGSYTMGGYRQAPGTERELVAVITCSGSSTYYADSVKGRFTISRDNAKNTVYLQMNSLKPADTAVYYCNAVKFGGYDYWGQGTQVTVSS”, the “polyreactivity (PSR sort gate)” value was “high polyreactivity”.
The value for “QVQLVESGGGLVQAGGSLRLSCAASGFIFGVYAMGWYRQAPAKERELDAAISYRTGTTYYADSVKGRFTISRDNAKNTVYLQMNSLKPEDTAVYYCAAKSRAAVRKYGSEYWGQGTQVTVSS” was “high polyreactivity”; that for “QVQLVESGGGLVQAGGSLRLSCAASGFIFGVYPMGWYRQAPGKERELVAAISRSGGSTYYADSVKGRFTISRDSAKNTVYLQMNSLNPEDTAVYYCATHVSLYGKGYYYWGQGTQVTVSS” was “high polyreactivity”; that for “QVQLVESGGGLVQAGGSLRLSCAASGFIFGWNAMGWYRQAPGKVREFVAAITSSGTSTYYADSVKGRFTISRDNAKNTVYLQMNSLKPEDTAVYYCAADVIFTWLAYSTEYDYWGQGTQVTVSS” was “low polyreactivity”.
The entry for “QVQLVESGGGLVQAGGSLRLSCAASGFIFGYNAMGWYRQAPGKERELVAAISGSGGRTYYADSVKGRFTISRDNAKNTVYLQMNSLIPEDTAVYYCAVADRRGLGYWGQGTQVTVSS” is “high polyreactivity”; for “QVQLVESGGGLVQAGGSLRLSCAASGFIFGYNAMGWYRQAPGKERELVASITYRGGRTYADSVKGRFTISRDNAKNTVYLQMNSLKPEDTAVYYCAAVRHVYVGGFDYWGQGTQVTVSS” it is “high polyreactivity”; for “QVQLVESGGGLVQAGGSLRLSCAASGFIFGYYAMGWYRQAPGKEREFVAAISARSGRTYYADSVKGRFTISRDNAKNTVYLQMNSLKPEDTAVYYCNTAYAYSGRYDYWGQGTQVTVSS” it is “high polyreactivity”.
The entry for “QVQLVESGGGLVQAGGSLRLSCAASGFIFGYYAMGWYRQAPGKERELVAAISSGSITTYADSVKGRFTISRDNAKNTVYLQMNSLKPEDTAVYYCNAVRWFFTFVSSSSGVGHGYWGQGTQVTVSS” is “low polyreactivity”; for “QVQLVESGGGLVQAGGSLRLSCAASGFIFGYYAMGWYRQAPGKERELVAAISSRGGSTYYADSVKGRFTISRDNAKNTVYLQMNSLIPEDTAVYYCAVRLVSFRHNFGQYDYWGQGTQLTVSS” it is “high polyreactivity”.
On to “QVQLVESGGGLVQAGGSLRLSCAASGFIFGYYAMGWYRQAPGKERELVAGISWGGARTYYADSVKGRFTISRDNAKNTVYLQMNSLKPEDTAVYYCAATHYGHSISYWFDYWGQGTQVTVSS”, for which the “polyreactivity (PSR sort gate)” value is on record as “high polyreactivity”.
For “QVQLVESGGGLVQAGGSLRLSCAASGFIFHPYAMGWYRQAPGKERELVAAISWSGDGTYYADSVKGRFTISRDNAKNTVYLQMNSLKPEDTAVYYCNAGFYRSYYKSPMGYWGQGTQVTVSS”, the “polyreactivity (PSR sort gate)” value is “low polyreactivity”.
The entry for “QVQLVESGGGLVQAGGSLRLSCAASGFIFHRYAMGWYRQAPGKERELVASITRSGGSTYYADSVKGRFTISRDNAKNTVYLQMNSLKPEDTAVYYCAAQLPSYYKYPRHDYWGQGTQVTVSS” is “high polyreactivity”; for “QVQLVESGGGLVQAGGSLRLSCAASGFIFHVYAMGWYRQAPGKERELVARITSSGGNTFYADSVKGRFTISRDNAKNTVYLQMNSLKPEDTAVYYCAKRYRYSVGWPVKNSAFGYWGQGTQVTVSS” it is “low polyreactivity”; for “QVQLVESGGGLVQAGGSLRLSCAASGFIFHYNAMGWYRQAPGKERELVAAISARGGGTYYADSVKGRFTISRDNAKNTVYLQMNSLKPEDTAVYYCAAGNYPLGDGYWGQGTQVTVSS” it is “high polyreactivity”.
The value for “QVQLVESGGGLVQAGGSLRLSCAASGFIFHYYAMGWYRQAPGKERELVAAISSGGGRTYYADSVKGRFTISRDNAKNTVYLLMNSLKPEDTAVYYCAARYAVNAWGGRRDYWGQGTEVTVSS” was “high polyreactivity”; that for “QVQLVESGGGLVQAGGSLRLSCAASGFIFIINAMGWYRQAPGKERELVAGIRWSGGSTYYADSVKGRFTISRDNAKNTVYLQMNSLKPEDTAVYYCNKDRGSLTLYTYDYWGQGTQVTVSS” was “low polyreactivity”.
The entry for “QVQLVESGGGLVQAGGSLRLSCAASGFIFIIYAMGWYRQAPGKERELVAGIRWSGGSTYYADSVKGRFTISRDNAKNTVYLQMNSLKPEDTAVYYCIKDRGSLTLYTYDYWGQGTQVTVSS” is “low polyreactivity”; for “QVQLVESGGGLVQAGGSLRLSCAASGFIFIKYAMGWYRQAPGKERELVAGITRSGSSTYYADSVKGRFTISRDNAKNTVYLQMNSLKPEDTAVYYCAAASGSSVGRYGYWGQGTQVTVSS” it is “high polyreactivity”.
For “QVQLVESGGGLVQAGGSLRLSCAASGFIFILNAMGWYRQAPGKERELVAGISISGGSTYYADSVKGRFTISRDNAKNTVYLQMNSLKPEDTAVYYCAAPDGDTRVSDQAYDYWGQGTQVTVSS”, the “polyreactivity (PSR sort gate)” value was “low polyreactivity”.
The value for “QVQLVESGGGLVQAGGSLRLSCAASGFIFIRNAMGWYRQAPGKEWELVAAISSGGRTYYADSVKGRFTISRDNAKNTVYLQMNSLKPEDTAVYYCAARVITHYGRYYYWGQGTQVTVSS” was “high polyreactivity”; that for “QVQLVESGGGLVQAGGSLRLSCAASGFIFITVNAMGWYRQAPGKEREFVAAITRSGTGTYYADSVKGRFTISRDYAKYTVFLQMNSLKPEDTAVSYCAADATSTGAYDYWGQGTQVTVSS” was “low polyreactivity”; that for “QVQLVESGGGLVQAGGSLRLSCAASGFIFITYDMGWYIQAPGKERELVAVITSGGTTNYADSVKGRFTIARDNAKNTVYLQMNSLKPEDTAVYYCNRDSVLDPGNPNPYGFDYWGQGTQVTVSS” was “low polyreactivity”.
As for “QVQLVESGGGLVQAGGSLRLSCAASGFIFIYYAMGWYRQAPGKERELVATINGITGSTYYADSVKGRFTISRDNAKNTVYLQMNSLKPEDTAVYYCAKVPRKYRAWMDYWGQGTQVTVSS”, the “polyreactivity (PSR sort gate)” value was “high polyreactivity”.
The entry for “QVQLVESGGGLVQAGGSLRLSCAASGFIFKANAMGWYRQAPGKERELVAVITRRGGSTYYADSVKGRFTISRDNAKNTVYLQMNSLKPEDTAVYYCAAKSYTYGYNYWGQGTQVTVSS” is “high polyreactivity”; for “QVQLVESGGGLVQAGGSLRLSCAASGFIFKAYAMGWYRQAPGKERELVASITSGDSTNYADSVKGRFTISRDNAKNTVYLQMNSLKPEDTAVYYCNADGWRWHRRKWVYGYDYWGQGTQVTVSS” it is “low polyreactivity”.
For the sequence “QVQLVESGGGLVQAGGSLRLSCAASGFIFKFYTMGWYRQAPGKERELVAVISGSGGRTYYADSVKGRFTISRDNAKNTVYLQMNSLKPEDTAVYYCARYGPYQSSYHYDYWGQGTQVTVSS”, the “polyreactivity (PSR sort gate)” value was “high polyreactivity”.
The value for “QVQLVESGGGLVQAGGSLRLSCAASGFIFKGYAMGWYRQAPGKERELVAAISKGGGNTYYADSVMGRFSISRDNAKNTVYLQMNSLKPEDTAVYYCAAVPTRYRSYTYTYGGYNYWGQGTQVTVSS” was “high polyreactivity”.
The value for “QVQLVESGGGLVQAGGSLRLSCAASGFIFKGYDMGWYRQAPGKEREMVAAITSGSTNYADSVKGRFTNSRDNAKNTVYLQMNSVKPEDTAVYYCNAELGRATLYPRVFIERGGYWGQGTQVNVSS” was “low polyreactivity”; that for “QVQLVESGGGLVQAGGSLRLSCAASGFIFKKYVMGWYRQAPGKERELVAGISRSGGSTYYADSVKGRFTISRDNAKNTVYLQMNSLKPEDTAVYYCAAYIYQSPTRGGGYWGQGTQVTVSS” was “high polyreactivity”.
